Reference: patent US20090285813A1
Residue numbers refer to the chain shown, from its start.

B1: anti-CD3 HuFR antibody 1 (heavy chain BD20610, light chain BD21130) (antibody, part only; not given: Heavy stretch before framework 4, V domains shown, part only)
VH, part: QVQLVESGAEVKKPGASVKVSCKASGYTFTRYTMHWVRQAPGKGLEWMGYINPSRGYTNYNQKFKDRVTISVDTSKNQFSLKLSSVTAADTAVYYCARYYDDHYCLDYVTVSSASTKGPS
VL: DIQMTQSPSSLSASVGDRVTITCSASSSVSYMNWYQQKPGQPPKLLIYDTSKLASGVPDRFSGSGSGTDFTLKISRVEAEDVGVYYCQQWSSNPFTFGQGTKVEIKFGQGTKVEIKR
B2: anti-CD3 HuFR antibody 2 (heavy chain BD20613, light chain BD21131) (antibody, part only; not given: few VH framework 4 residues, V domains shown, part only)
VH, part: QVQLQESGPGLVKPSETLSLTCAVSGYTFTRYTMHWVRQAPGKGLEWVGYINPSRGYTNYNQKFKDRFTISRDDSKNTAYLQMNSLKTEDTAVYYCTRYYDDHYCLDYVTVSSASTKGPS
VL: B1 VL with S10T, P42A, K44R
B3: anti-CD3 HuFR antibody 7 (heavy chain BD20611, light chain BD21136) (antibody, part only; not given: Heavy stretch before framework 4, V domains shown, part only)
VH, part: QVQLVESGAEVKKPGASVKVSCKASGYTFTRYTMHWVRQAPGKGLEWMGYINPSRGYTNYNQKFKDRLTISKDTSKNQVVLTMTNMDPVDTATYYCARYYDDHYCLDYVTVSSASTKGPS
VL: B1 VL with S10T, Q41K, P42A, V57I, K73T, V77L, A79P, V82F, G83A
B4: anti-CD3 HuFR antibody 9 (heavy chain BD20613, light chain BD21138) (antibody, part only; not given: few VH framework 4 residues, V domains shown, part only)
VH, part: B2 VH, part
VL: B1 VL with S10T, Q41K, P42A
B5: anti-CD3 HuFR antibody 3 (heavy chain BD20611, light chain BD21132) (antibody, part only; not given: Heavy stretch before framework 4, V domains shown, part only)
VH, part: B3 VH, part
VL: EIVLTQSPATLSLSPGERATLSCSASSSVSYMNWYQQKPGKAPKLLIYDTSKLASGVPSRFSGSGSGTEFTLTISSLQPDDFATYYCQQWSSNPFTFGQGTKVEIKFGQGTKVEIKR
B6: anti-CD3 HuFR antibody 6 (heavy chain BD20611, light chain BD21135) (antibody, part only; not given: Heavy stretch before framework 4, V domains shown, part only)
VH, part: B3 VH, part
VL: B5 VL with L4M, L13V, K41Q, K44R, S59D, E69D, P79A, D80E, F82V, T84V
B7: anti-CD3 HuFR antibody 8 (heavy chain BD20611, light chain BD21137) (antibody, part only; not given: few VH framework 4 residues, V domains shown, part only)
VH, part: B3 VH, part
VL: DIQMTQSPSTLSASVGDRVTITCSASSSVSYMNWYQQKPGQPPKLLIYDTSKLASGVPSRFSGSGSGTDFTFTISSLQPEDIATYYCQQWSSNPFTFGQGTKVEIKFGQGTKVEIKR
B8: anti-CD3 HuFR antibody 5 (heavy chain BD20611, light chain BD21134) (antibody, part only; not given: Heavy stretch before framework 4, V domains shown, part only)
VH, part: B3 VH, part
VL: B5 VL with L4M, L13V, K41Q, A42P
B9: anti-CD3 HuFR antibody 4 (heavy chain BD20611, light chain BD21133) (antibody, part only; not given: Heavy stretch before framework 4, V domains shown, part only)
VH, part: B3 VH, part
VL: DIVMTQSPLSLPVTPGEPASISCSASSSVSYMNWYQQKPGQPPKLLIYDTSKLASGVPSRFSGSGSGTEFTLTISSLQPDDFATYYCQQWSSNPFTFGQGTKVEIKFGQGTKVEIKR

These binders were tested against human CD3 (human) (UniProt P07766) (assay: cell-based or functional assay).
Chain of human CD3 (human) (P07766 23-207): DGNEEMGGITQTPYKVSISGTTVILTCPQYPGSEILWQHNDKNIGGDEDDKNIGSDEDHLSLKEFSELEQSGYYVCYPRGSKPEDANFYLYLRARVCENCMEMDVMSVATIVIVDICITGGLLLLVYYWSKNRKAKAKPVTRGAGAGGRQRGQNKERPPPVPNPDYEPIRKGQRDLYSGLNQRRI

Row | Binder | Apo-One Apoptosis Assay, 12.5 ng/ml | Apo-One Apoptosis Assay, 12.5 ng/ml, second block (ratio to Fc null) | Apo-One Apoptosis Assay, 25 ng/ml | Apo-One Apoptosis Assay, 25 ng/ml, second block (ratio to Fc null) | Apo-One Apoptosis Assay, 50 ng/ml | Apo-One Apoptosis Assay, 50 ng/ml, second block (ratio to Fc null)
1 | B1 | 797 | 1.6 | 1220 | 1.7 | 1750 | 1.5
2 | B2 | 854 | 1.7 | 1440 | 2 | 2160 | 1.8
3 | B3 | 2270 | 4.6 | 3480 | 4.8 | 4740 | 4
4 | B4 | 885 | 1.8 | 1380 | 1.9 | 2040 | 1.7
5 | B5 | 649 | 1.3 | 854 | 1.2 | 1130 | 1
6 | B6 | 1280 | 2.6 | 2220 | 3.1 | 3500 | 2.9
7 | B7 | 969 | 2 | 1630 | 2.2 | 2560 | 2.1
8 | B8 | 1160 | 2.4 | 1660 | 2.3 | 2160 | 1.8
9 | B9 | 1390 | 2.8 | 2350 | 3.2 | 3300 | 2.8
